Test results taken from patent US20220356229A1 (published 2022).
Read-outs that look alike come from different tables or passages of the source.

How the values were obtained:
[1] = target: SARS-CoV-2 Spike protein (wild type) (SARS-CoV-2, UniProt P0DTC2 14-1208)
[2] = target: SARS-CoV-2 Spike protein on pseudotyped lentivirus (SARS-CoV-2, UniProt P0DTC2 14-1273); test: cell-based or functional assay
[3] = target: SARS-CoV-2 Spike protein (wild type) (SARS-CoV-2, UniProt P0DTC2 14-1208); test: SPR (Carterra LSA), mAb coupled to HC30M chip, Spike titrated; Example 4 methods
[4] = target: SARS-CoV-2 full length Spike protein, wild type, expressed on the surface of transiently transfected CHO cells (SARS-CoV-2, UniProt P0DTC2 14-1273)
[5] = target: SARS-CoV-2 Spike (S) protein, wild type, full length (SARS-CoV-2, UniProt P0DTC2 14-1273)
[6] = target: Spike protein of authentic SARS-CoV-2/MT020880.1 (live virus) (SARS-CoV-2, UniProt P0DTC2 14-1273); test: cell-based or functional assay
[7] = target: Spike protein of SARS-CoV-2 hCoV-19/Canada/ON_ON-VIDO-01-2/202 (live virus) (SARS-CoV-2, UniProt P0DTC2 14-1273); test: cell-based or functional assay
[8] = target: SARS-CoV-2 Spike protein, wild type, full length (SARS-CoV-2, UniProt P0DTC2 14-1208)

B1: anti-SARS-CoV-2 antibody 307 (antibody, V domains shown)
VH: QVQLVESGGGVVQPGRSLRLSCAASGFTFSSYGMHWVRQAPGKGLEWVAVIWYDGSNKYYADSVKGRFTISRDNSKNTLYLQMNSLRAEDTAVYYCAKGYTWDYYYYGMDVWGQGTTVTVSS
VL: not shown
[1]
  kon: 101000 M⁻¹ s⁻¹

B2: anti-SARS-CoV-2 antibody 1098 (antibody, V domains shown)
VH: EVQLLESGGGLVQPGGSLRLSCAASGFTFNSYAMSWVRQAPGKGLEWVSAISGSGGSTYYADSVKGRFSISRDNAKNTLFLQMNSLRAEDTAVYYCARSGGNFDYWGQGTLVTVSL
VL: SYELTQPPSVSVSPGQTARITCSGDVLAKRYVYWYQQKPGQAPVLVIYRDSERPSGIPERFSGSSSGTTVTLTISGVQAVDEADYYCQSADSSGTLYVFGTGTKVTVL
[2]
  Pseudo-neutralization IC50: 0.087 µg/mL
[3]
  Kd: 173 pM

B3: antibody 577 (antibody, V domains shown)
VH: QLPLQESGPGLVKPSETLSLTCTVSGGSISSSSYYWGWIRQPPGKGLEWIGSIYYSGSTFYNPSLKSRVTISGDTSKNQFSLKVTSVTAADTAVYYCARGSGSSGWYAFDIWGQGTMVTVSS
VL: QSALTQPASVSGSPGQSITISCTGTSSDFGGYNYVSWYQQHPDKAPKLMIYDVSNRPSGVSNRFSGSKSGNTASLTISGLQAEDEADYYCSSYTTSSTWVFGGGTKLTVL
[4]
  median fluorescence intensity, fold over isotype control: 1.14 fold over isotype

B4: antibody 377 (antibody, V domains shown)
VH: EVQLVESGGGLVKPGGSLRLSCATSGFTFRTYSMNWVRQAPGKGLEWVSSITTSRNYIYYADSVRGRFTISGDNANNSLYLQMNSLRAEDTAVYYCARVRFVRDTRKPYYFDFWGQGTLVTVSS
VL: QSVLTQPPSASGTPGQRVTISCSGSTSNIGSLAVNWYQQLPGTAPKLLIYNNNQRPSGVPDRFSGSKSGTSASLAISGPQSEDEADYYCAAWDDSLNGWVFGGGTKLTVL
[5]
  fold over isotype (median fluorescence intensity): 0.78 fold over isotype

B5: anti-SARS-CoV-2 antibody 555 (antibody, V domains shown)
VH: QVQLVQSGAEVKKPGSSVKVSCKASGGTFSNYAISWVRQAPGQGLEWMGRIIPILGIANYAQKFQGRVTITADKSTSTAYMELSSLRSEDTAVYYCARGYYEARHYYYYYAMDVWGQGTAVTVSS
VL: not shown
[6]
  IC50 (ng/mL), immunofluorescence neutralization assay: 49.2 ng/mL
[7]
  IC50 (µg/mL), plaque reduction neutralization test: 0.0083 µg/mL

B6: anti-SARS-CoV-2 antibody 1015 (antibody, V domains shown)
VH: EVQLVESGGGLVQPGGSLRLSCAASGFTFSSYWMHWVRQAPGKGLVWVSHINSDGSSTSYADSVKGRFTISRDNAKNTLYLQMNSLRAEDTAVYYCARGLRYFDLDVWGQGTTVTVSS
VL: QSVLTQPPSVSEAPRQRVTISCSGSSSNIGNNAVNWYQQLPGKAPKLLIFYDDLLPSGVSDRFSGSKSGTSASLAISGLQSEDEADYYCAAWDDSLNGGVFGGGTKLTVLG
[6]
  IC50 (ng/mL), immunofluorescence neutralization assay: 260 ng/mL

B7: anti-SARS-CoV-2 antibody 278 (antibody, V domains shown)
VH: QVQLVQSGAEVKKPGASVKVSCKASGYTFTSYYMHWVRQAPGQGLEWMGIINPSGGSTSYAQKFQGRVTMTRDTSTSTVYMELSSLRSEDTAVYYCARDHSNADPYYDFWSGYYTRTYYYGMDVWGQGTTVTVSS
VL: not shown
[1]
  Kd: 4280 pM

B8: anti-SARS-CoV-2 antibody 923 (antibody, V domains shown)
VH: EVQLVESGGGVVRPGGSLRLSCAASGFIFDDYDMTWVRQAPGKGLEWVSGISWNGGNTGYADSVKGRFTISRDNAKNSLYLQMNSLRAEDTALYHCAVIMSPIPRYSGYDWAGGAFDIWGQGTMVTVSS
VL: SSELTQDPAVSVALGQTVRITCQGDSLRSYYASWYQQKPGQVPILVIYDKNNRPSGIPDRFSGSSSGNTASLTITGAQAEDEADYYCNSRDSSGNAVVFGGGTKLTVLG
[6]
  IC50 (ng/mL), immunofluorescence neutralization assay: 121 ng/mL
[7]
  IC50 (µg/mL), plaque reduction neutralization test: 0.01 µg/mL

B9: anti-SARS-CoV-2 antibody 1037 (antibody, V domains shown)
VH: QITLKESGPTLVKPTQTLTLTCTFSGFSLSTSGVGVGWIRQPPGKALEWLALIYWDDDKRYSPSLKSRLTITKDTSKNQVVLTMTNMDPVDTATYYCAHHTITRINDYWGQGTLVTVSS
VL: QSALTQPASVSGSPGQSITISCTATSSDVGAYNYVSWYQQHPGKAPKLMIYDVSKRPSGVSNRFSGSKSGNTASLTISGLQAEDEADYYCSSYTSSSTVFGGGTKLTVLG
[6]
  IC50 (ng/mL), immunofluorescence neutralization assay: 32.8 ng/mL
[7]
  IC50 (µg/mL), plaque reduction neutralization test: 0.0096 µg/mL

B10: anti-SARS-CoV-2 antibody 1118 (antibody, V domains shown)
VH: QVQLVESGGGVVQPGRSLRLSCAASGFTFSTYAMHWVRQAPGKGLEWVAVISYDGSNKYYSDSVKGRFTISRDNSKNTLYLQMNSLRAEDTAVYYCARAHTSGWPLGDYFDYWGQGTLVTVSS
VL: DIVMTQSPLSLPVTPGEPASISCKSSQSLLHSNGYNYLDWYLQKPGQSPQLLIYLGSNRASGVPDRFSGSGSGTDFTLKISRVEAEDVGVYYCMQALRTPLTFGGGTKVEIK
[2]
  Pseudo-neutralization IC50: 0.026 µg/mL
[3]
  Kd: 223 pM

B11: anti-SARS-CoV-2 antibody 1091 (antibody, V domains shown)
VH: QVQLVESGGGVVQPGRSLRLSCAASGFTFSNYAMHWVRQAPGKGLEWVAVISYDGSNKYYADSVKGRFTISRDNSKNTLYLQMNSLRAEDTAVYYCARDKLLWFGELLFDMDVWGKGTTVTVSS
VL: DIQMTQSPSSLSASVGDRVTITCRASQGISNYLAWFQQKPGKAPKSLIYDASSLQSGVPSKFSGSGSGTDFTLTISSLQPEDFATYYCQQYNSYPPSFGPGTKVDIK
[3]
  Kd: 54 pM

B12: antibody 474 (antibody, V domains shown)
VH: EVQLVESGGGLVQPGGSLRLSCAASGFTFSSYWMHWVRQAPGKGLVWVSRINSDGSSTSYADSVKGRFTISRDNAKNTLYRQMNSLRAEDTAVYYCALGPLDIVGSYYYYGMDVWGQGTTVTVSS
VL: NFMLTQPHSVSESPGKTVTISCTGSSGSIASNYVQWYQQRPGSAPTTVIYEDNQRPSGVPDRFSGSIDSSSNSASLTISGLKTEDEADYYCQSYDSSNQDVVFGGGTKLTVL
[8]
  binding signal (fold over isotype control): 1.47 fold over isotype

B13: antibody 576 (antibody, V domains shown)
VH: QVQLVESGGGVVQPGRSLRLSCAASGFTFSSYAMHWVRQAPGKGLEWVAVISYDGSNKYYADSVKGRFTISRDNSKNTLYLQMNSLRAEDTAVYYCAKAGGGSYYRGFDYWGQGTLVTVSS
VL: DIQLTQSPSFLSASVGDRVTITCRASQGISSYLAWYQQKPGKAPKLLIYAASTLQSGVPSRFSGSGSGTEFTLTISSLQPEDFATYYCQQLNSYPTFGPGTKVDIK
[4]
  median fluorescence intensity, fold over isotype control: 8.75 fold over isotype

B14: anti-SARS-CoV-2 antibody 1075 (antibody, V domains shown)
VH: QVQLVQSGAEVKKPGASVKVSCKVSGYTLIELSMHWVRQAPGKGLEWMGGFDPEDGETIYAQKFQGRVTMTEDTSTDTAYMELSSLRSEDTAVYYCATEWAYYGSGSYLGYWGQGTLVTVSS
VL: EIVMTQSPATLSVSPGERATLSCRASQSVSSNLAWFQQKPGQAPRLLIYGASTRVTVIPARFSGSGSGTEFTLTISSLQSEDFAVYYCQQYNNWPRTFGQGTKVEIKR
[6]
  IC50 (ng/mL), immunofluorescence neutralization assay: 89.6 ng/mL
[7]
  IC50 (µg/mL), plaque reduction neutralization test: 0.409 µg/mL
